Measured values published in patent US10258699B2, “Angiopep and derivatives thereof for imaging amyloids” (University Of Science And Technology Of China, priority 2014, dated 2019).

Assays:
[1] = test system: APP transgenic mice's brains; experiment: In vivo near-infrared imaging of APP transgenic mouse after intravenous injection; details: 13 mg/kg intravenous injection
Description: (§1) Optical in vivo imaging study was performed on IVIS imaging system, an optical imaging system from Caliper Life Sciences for imaging living body with an excitation filter set as Cy5.5, and emission spectrum band-pass filter as 640 nm. Before imaging, the mice were anaesthetized with a mixture gas of isoflurane and oxygen, and placed on an imaging plate with its face downward. White light photography (exposure time: 0.2 s) and near-infrared fluorescent imaging (exposure time: 5 s) were performed under the same field of vision (FOV) (FOV=12.5 cm, f/stop=1, Bin=1) at time points including before injection and several selected time points after intravenous injection. Each mouse received an injection dose of 13 mg/kg. White light photographs and near-infrared fluorescent images were superimposed to determine the size of intracranial portion. Finally, the imaging views were processed by using Living Image Software (Caliper Life Sciences).

[2] = molecular target: Aβ1-42 aggregates (Homo sapiens, UniProt P05067); experiment: biochemical
Description: Dissolving Aβ1-42 solid in PBS (PH 7.4) at a concentration of 0.25 mg/ml (55.38 uM), incubating in 37° C. water bath on a shaker for 42 h.
Preparing solutions (containing 10% DMF), containing the conjugate formed by angiopep-2 and FITC (10 uM) as well as Aβ1-42 aggregates (0, 5, 10 uM) or BSA (45 ug/mL), respectively; incubating the mixture solution at 37° C. for 30 minutes.
Preparing solutions (containing 10% DMF), containing the conjugate formed by angiopep-2 and FITC (0-3.75 uM) as well as Aβ1-42 aggregates (2.2 uM) or BSA (10 uM), respectively, incubating the mixture solution at 37° C. for 30 minutes.
Detecting the mixture solutions prepared above for their emission spectrum with fluorescence spectrophotometer, emission wavelength: 333 nm, maximum emission wavelength: 531 nm, in the range of 500-600 nm.
Plotting by using GraphPad Prism 5.0 (GraphPad Software, Inc., La Jolla, Calif., USA) and calculating equilibrium dissociation constant.

[3] = test system: amyloid deposits in APP transgenic mouse brain; experiment: Fluorescent microscopy of APP transgenic mouse's brain sections after intravenous injection of the Cy5.5 conjugate; type: in vivo; details: 13 mg/kg intravenous, brain removed after 30 minutes
Chain of amyloid deposits in APP transgenic mouse brain (P05067 672-711 limits assumed): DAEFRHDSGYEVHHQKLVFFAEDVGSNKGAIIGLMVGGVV
Description: 30 minutes after intravenous administration (13 mg/kg), the mice were sacrificed, and then their brains were removed and frozen in liquid nitrogen. […] The brain was cut into sections of about 25 m in thickness using a frozen tissue microtome (Lecia CM1950). The sections were then placed on a fluorescent microscope (IX8, OLYMPUS) for observation and photography.

[4] = test system: APP transgenic mice's brains; details: mouse, in vivo
Description: as §1

Chain of Aβ1-42 aggregates (P05067 672-713 limits assumed): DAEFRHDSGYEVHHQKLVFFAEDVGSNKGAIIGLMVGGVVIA

In the case of C[C@@H](O)[C@H](NC(=O)CCCCCNC(=S)Nc1ccc2c(c1)C(=O)OC21c2ccc(O)cc2Oc2cc(O)ccc21)C(=O)N[C@@H](Cc1ccccc1)C(=O)N[C@@H](Cc1ccccc1)C(=O)N[C@@H](Cc1ccc(O)cc1)C(=O)NCC(=O)NCC(=O)N[C@@H](CO)C(=O)N[C@@H](CCCNC(=N)N)C(=O)NCC(=O)N[C@@H](CCCCN)C(=O)N[C@@H](CCCNC(=N)N)C(=O)N[C@@H](CC(N)=O)C(=O)N[C@@H](CC(N)=O)C(=O)N[C@@H](Cc1ccccc1)C(=O)N[C@@H](CCCCN)C(=O)N[C@H](C(=O)N[C@@H](CCC(=O)O)C(=O)N[C@@H](CCC(=O)O)C(=O)N[C@@H](Cc1ccc(O)cc1)C(=O)O)[C@@H](C)O [conjugate formed by angiopep-2 and FITC], the “passing through BBB and aggregation in brain in vivo” value ([1]; APP transgenic mice) is reported as “can pass through BBB and aggregate in APP transgenic mice's brains in vivo” and the Kd [2] is reported as 676 nM.

With “conjugate formed by angiopep-2 and Cy5.5: angiopep-2 (TFFYGGSRGKRNNFKTEEY) linked N-terminally via Acp to Cy5.5; near-infrared imaging conjugate, MW 2880.24 Da” the “aggregation in brain (near-infrared imaging)” value ([1]; APP mice) was “aggregated in APP mice's brains”, the “labeling of amyloid deposits in brain in vivo” value [3] was “can bind to and label the amyloid deposits” and the “time after which cleared from brain” value [4] was 20 h.
